Read-outs that look alike come from different tables or passages of the source.
Experiments:
[1] = target: Cer-NPHP4-YC (UniProt O75161); experiment: split reporter (BiFC, NanoBiT); BiFC: Cer-NPHP-YC co-expressed with YN-myc-Nup in NIH 3T3 cells in serum-free medium; fixed 48 hours post-transfection; YFP fluorescence at the base of the primary cilium, cells counted across two independent experiments
[2] = target: Cer-NPHP4-YC (UniProt O75161); experiment: as above; remark: listed apart in the source

Chain of UniProt O75161 (O75161 whole entry): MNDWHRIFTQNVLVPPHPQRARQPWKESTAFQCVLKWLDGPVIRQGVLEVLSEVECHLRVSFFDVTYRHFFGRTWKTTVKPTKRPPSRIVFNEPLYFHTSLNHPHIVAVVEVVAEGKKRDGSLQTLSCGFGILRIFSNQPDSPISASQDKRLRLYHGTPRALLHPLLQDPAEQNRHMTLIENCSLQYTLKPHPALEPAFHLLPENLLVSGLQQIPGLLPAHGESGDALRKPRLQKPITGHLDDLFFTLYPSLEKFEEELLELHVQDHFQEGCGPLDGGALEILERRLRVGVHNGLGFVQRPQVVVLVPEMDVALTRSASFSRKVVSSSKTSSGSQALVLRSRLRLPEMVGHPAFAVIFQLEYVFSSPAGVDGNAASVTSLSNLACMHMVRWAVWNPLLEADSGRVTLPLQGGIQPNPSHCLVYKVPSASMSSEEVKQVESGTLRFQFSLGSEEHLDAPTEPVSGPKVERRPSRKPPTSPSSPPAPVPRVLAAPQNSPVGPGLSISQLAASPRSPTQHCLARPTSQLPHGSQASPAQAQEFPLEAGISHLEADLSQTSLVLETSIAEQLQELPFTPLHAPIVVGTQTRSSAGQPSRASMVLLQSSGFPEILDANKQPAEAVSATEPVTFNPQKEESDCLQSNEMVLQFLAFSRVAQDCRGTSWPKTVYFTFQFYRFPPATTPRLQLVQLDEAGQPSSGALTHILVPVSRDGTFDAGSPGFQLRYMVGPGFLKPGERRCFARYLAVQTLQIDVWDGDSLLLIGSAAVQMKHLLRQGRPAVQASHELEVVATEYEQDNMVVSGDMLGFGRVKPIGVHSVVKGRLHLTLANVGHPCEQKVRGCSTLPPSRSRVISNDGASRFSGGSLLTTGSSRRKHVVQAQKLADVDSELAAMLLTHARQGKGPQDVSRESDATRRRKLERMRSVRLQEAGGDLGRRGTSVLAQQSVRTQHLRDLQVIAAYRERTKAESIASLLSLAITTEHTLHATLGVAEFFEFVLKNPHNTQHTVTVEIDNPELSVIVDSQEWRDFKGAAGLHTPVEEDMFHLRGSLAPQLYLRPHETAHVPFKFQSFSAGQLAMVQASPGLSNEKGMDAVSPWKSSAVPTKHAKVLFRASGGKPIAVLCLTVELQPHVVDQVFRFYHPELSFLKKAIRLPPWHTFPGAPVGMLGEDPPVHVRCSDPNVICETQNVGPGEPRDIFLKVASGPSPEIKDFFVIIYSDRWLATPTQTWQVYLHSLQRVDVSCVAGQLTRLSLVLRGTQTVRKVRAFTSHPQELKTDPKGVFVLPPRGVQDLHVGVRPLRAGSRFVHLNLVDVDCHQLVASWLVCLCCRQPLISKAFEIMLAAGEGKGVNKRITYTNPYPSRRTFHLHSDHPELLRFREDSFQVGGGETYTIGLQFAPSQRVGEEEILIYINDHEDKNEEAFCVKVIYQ

cells with BiFC signal [1]: 4 of 30 cells
cells with BiFC signal [2]: 4 of 35 cells
Substance: YN-myc-Nup35 (from UniProt Q8NFH5 1-326) (natural protein)
